Data published in a protein production outcome set (Wang et al. 2014).

Experiment: label from the status in PepcDB records

Protein production, failed:
MPSEAFRRHRAYRENKLQPLVSVLICAYNVEKYFAQSLAAVVNQTWRNLDILIVDDGSTDGTLAIAQRFQEQDGRIRILAQPRNSGLIPSLNIGLDELAKSGGGGEYIARTDADDIAAPDWIEKIVGEMEKDRSIIAMGAWLEVLSEEKDGNRLARHHEHGKIWKKPTRHEDIADFFPFGNPIHNNTMIMRRSVIDGGLRYNTERDWAEDYQFWYDVSKLGRLAYYPEALVKYRLHANQVSSKYSIRQHEIAQGIQKTARNDFLQSMGFKTRFDSLEYRQIKAVAYELLEKHLPEEDFERARRFLYQCFKRTDTLPAGAWLDFAADGRMRRLFTLRQYFGILHRLLKNR, MPSHTDENWELAIQTPAITDRSLAAGLAYAMGSRVNGISFDAATGLLMGKVRGTGPQPYSTSAKLVRKPSGWSCTVGICNCPVRKDCKHVAALLFTAEDHPTIRAQLLSQAPGIQTSRVGSGQQGGSARPAWEQALNRLITKPGTAPSAAGIPLALQFEVEEPAAHFSYTGRRDPMRSVRQLKARPVMMGAKGKWIRGDVSWNNLSYVSFRREFNEVHVEWLQTFLAAHGSSNGRQQPSGAMWLSLNDFAAKNLWTLLAEATKAGIPLIHSAGSEPVRVETQPAVVGLSLARLATDPDTAKHEAPDGGLQLAPSVTLGGEAVDPGSVGFLGKPANGIFFTHSGDSLPGVPQQKNLITLAPMEGGISDELLEFVMDGDTLQIPAEDESRFLTSFYPKLRQSTPVQAADESVELPTLAVPTLSLLANYGNDHKVRLHWEWHYKSGTLVTSQPLWRHPDDRGYRDDLEEARILESLGRPWDVVPALAESATGGWGAPRIAASAELSGLDTLAFTEEVLPALKDLPDVVVETSGDIADYREAAEAPVVSISTKETASGDWFDLGIVITLEGEPVSFAAVFSALAAGMSRMLLPSGAYFSLDLPELHQLRALIDEARSLQDNPDNKDGTLQISRFQAGLWDELAQLGIVDEQAAAWREAVGGLLDDGVTGLPLPAGLNAELRPYQLEGFNWLSFLYKHSLGGVLADDMGLGKTVQAIALICAAKDLAAETAAAAQGDASEVVPRAPFLVVAPTSVVSNWAAEAQRFAPGLVVRTVGETFAKSGMAPAEALAGADVVITSYALFRIDYDAYASFQWAGLMLDEAQFVKNHQSKAYQCARKLPARFKLAITGTPLENNLMEFWALTSIVAPGLFPSPKRFAENYQKPVEKNGDSAQLGKLRRRVRPLMMRRTKEQVIKDLPPKQEQILEVVLNPRHQKVYQTHLQRERQKILGLIDDVNKNRFTIFQSLTLLRQLSLDASLVDSSLSGVRSSKLDVLFEQLEDLISEGHRALIFSQFTGFLGKVRERLDAEGVEYCYLDGSTRNRGDVVSEFKNGAAPVFLISLKAGGFGLNLTEADYVFLLDPWWNPASEAQAVDRTHRIGQARNVMVYRLVAKDTIEEKVMALKAKKSQLFADVMEGDALAGGSLTADDLAALFAE, MPSPSGSSTLSKPAPRFASIGSPYFGIMLAIMAVVLILSNIGASKGVVLGPIITDGGFFLFPLAYILGDVMSEVYGFKVARKAIITSFALSVFASLCYWIIIVLPGFNDEYGTAKQAAIEGALGPVPLIVLGSLLAFLAGQTINSWILVKMKARTGEKSLWARLMGSSVVGEFVDTLIFCSIAASVIGITDFGSFLNYVLVGFVYKTAVEFLFVPVTVLVVGWIKKREPSYGVVAA, MPSSGQLYGDEERELTPTPAIPEEGVYEVKYSNRRTNVVRLLPNGFQERKLRRLANLSAKLFNEVNFERRQQFFHEGKVNIEETYKKYYEKYKVILGVNAQAVLNKNNEAWSSFFSLLKLKKEGKLPPHMNHVSPPGYWKDREAGKRKQILVIRQDRYKVDAENHKLILKDFDMEIDFIGRLKWYGKQGRLEIIFDETRNAWYAHIPIEVGVEETKAGKKSKHVVKGERKSIQISKPKGNKVASIDLGINVIASVVVNDGTWLLYKGVRTKEDYFYFQKRIAEVQSLADRTRNIGEYDAYLELLREKRRLFKKLTRRLTHLYRNLASHLIETLYELGVSTIYLGYPFNIVQEKGNKFTVNMWSYRKLMESIELKAQEYGMKVFEVVEYNTSKYCAYHDVEVKRNPRGVINCPLGHKLHSDLNGALNILKKALGVIVNAVKKPLSFIVDHNRVAPIKGCNPLEHHHHHH, MPSSTTVPTRRGLVSGPSSSDAHGDMPAVSVIMNCLNCERDLAEAIGSVFAQTFDDWEIVFWDNGSTDRSAEIAQGFGERVRYFRATETVPLGAARNLAIAKARGEFIAFLDCDDVWLPEKLERQVALFRANPRVGLVCTDTVMFTGAKDLNRLFEHAHPARGHVFRELMTTQWISMSSAVIRRNALDGMDHWFDESLNVCEEADVFYRIAWDWELDHVDAPLTRWRVHGANTTFRKFGQFAEETLRILDKHRAMYPGYDERYADLVALLRRRAAFQRAVALWREGRGAEARATIAPFDASPKFRLFRLATYLPGALFDPLARLYFALPAFLRRLEHHHHHH
